Data on one molecule can be found in US20140228277A1 (Genentech, published 2014).

Experiment [1] addresses T1, human BACE1 extracellular domain (residues 22-457), wild type, C-terminal His8 (human, UniProt P56817 22-457).
T1 construct: Expressed in CHO cells with the BACE1 signal peptide; also called WT; BACE1 ECD
Nature of the experiment: ELISA; biotinylated BACE020 on plate-coated BACE1 ECD (WT, the reference). On the procedure:
(§1) Maxisorp microtiter plates (Nalge Nunc International, Rochester, N.Y.) were coated overnight at 4° C. with 2 μg/ml BACE1 mutant in 50 mM carbonate, pH 9.6. The coated wells were washed with buffer (PBS, 0.05% Polysorbate 20) and blocked with assay buffer (PBS, pH 7.4, 0.5% BSA, 0.05% Tween 20, 15 ppm Proclin) for 1 h at room temperature with gentle shaking. […] After washing, the amount of peptide bound to the plate was detected by the addition of Streptavidin-Horseradish Peroxidase Conjugate (GE Healthcare, Piscataway, N.J.) followed by the addition of TMB/H₂O₂ substrate (KPL, Gaithersburg, Md.). The reaction was quenched with 1 M phosphoric acid and the A₄₅₀ measured on a Molecular Devices SpectraMax Plus384 microplate reader. Concentrations to give half maximal effective concentration (EC₅₀) were determined using a 4-parameter non-linear regression curve-fitting program with Kaleidagraph (Synergy Software, Reading, Pa.). […] Concentrations to give half maximal inhibition concentration (IC₅₀) were determined using a 4-parameter non-linear regression curve-fitting program with Kaleidagraph.
(§2) The fold decrease in binding affinity was determined as the relative EC₅₀ values of EC₅₀ (mut)/EC₅₀ (WT), which are listed in Table 3.

For experiment [2], the target named is T2, human BACE1 ECD (22-457) R296A, His8 (human, UniProt P56817 22-457).
T2 construct: also called R296A (235)
T2 sequence (P56817 other isoform, or with tags, fused parts or gaps R296A R296A): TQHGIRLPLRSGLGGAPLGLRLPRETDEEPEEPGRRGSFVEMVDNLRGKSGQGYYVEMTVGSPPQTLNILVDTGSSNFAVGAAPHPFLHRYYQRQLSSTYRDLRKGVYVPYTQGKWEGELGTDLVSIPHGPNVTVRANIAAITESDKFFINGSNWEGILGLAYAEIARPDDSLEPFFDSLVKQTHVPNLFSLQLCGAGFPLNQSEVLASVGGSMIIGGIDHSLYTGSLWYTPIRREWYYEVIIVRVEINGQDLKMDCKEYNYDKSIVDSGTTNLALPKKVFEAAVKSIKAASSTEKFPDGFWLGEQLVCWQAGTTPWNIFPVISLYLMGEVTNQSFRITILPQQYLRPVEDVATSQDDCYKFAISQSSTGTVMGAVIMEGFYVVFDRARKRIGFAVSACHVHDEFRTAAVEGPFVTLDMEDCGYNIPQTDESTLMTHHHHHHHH
Nature of the experiment: ELISA; biotinylated BACE020 on plate-coated BACE1 ECD mutant; ratio to WT. On the procedure:
as §1, §2
(An ELISA detects its analyte on a solid surface through an enzyme-linked reagent.)

The target of experiment [3] is T3, human BACE1 ECD (22-457) K382A, His8 (human, UniProt P56817 22-457).
T3 construct: also called K382A (321)
T3 sequence (P56817 other isoform, or with tags, fused parts or gaps K382A K382A): as the sequence (P56817 other isoform, or with tags, fused parts or gaps R296A R296A) above, with A275R, K361A counted along it
Described as above. On the procedure: as §1, §2

Experiment [4] concerns the target T4, human BACE1 ECD (22-457) L91A, His8 (human, UniProt P56817 22-457).
T4 construct: also called L91A (30)
The description is as above. On the procedure: as §1, §2

Experiment [5] has as its target T5, human BACE1 ECD (22-457) F169A, His8 (human, UniProt P56817 22-457).
T5 construct: also called F169A (108)
The description is as above. On the procedure:
as §1, §2

Experiment [6] concerns the target T6, human BACE1 ECD (22-457) G74A, His8 (human, UniProt P56817 22-457).
T6 construct: also called G74A (13)
The experiment is described as above. As to the method:
as §1, §2

Experiment [7] deals with human BACE1 ECD (22-457) R189A, His8 (human, UniProt P56817 22-457). The description is as above. On the procedure: as §1, §2
Sequence of human BACE1 ECD (22-457) R189A, His8 (P56817 other isoform, or with tags, fused parts or gaps R189A R189A): as the sequence (P56817 other isoform, or with tags, fused parts or gaps R296A R296A) above, with R168A, A275R counted along it
Experiment [8] concerns the target T7, human BACE1 ECD (22-457) N294A, His8 (human, UniProt P56817 22-457).
T7 construct: also called N294A (233)
The description is as above. As to the method: as §1, §2

Experiment [9] concerns the target T8, human BACE1 ECD (22-457) D289A, His8 (human, UniProt P56817 22-457).
T8 construct: also called D289A (228)
The experiment is described as above. On the procedure: as §1, §2

The target in experiment [10] is T9, human BACE1 ECD (22-457) G72A, His8 (human, UniProt P56817 22-457).
T9 construct: also called G72A (11)
T9 sequence (P56817 other isoform, or with tags, fused parts or gaps G72A G72A): as the sequence (P56817 other isoform, or with tags, fused parts or gaps R296A R296A) above, with G51A, A275R counted along it
The description is as above. On the procedure: as §1, §2

The target of experiment [11] is T10, human BACE1 ECD (22-457) S96A, His8 (human, UniProt P56817 22-457).
T10 construct: also called S96A (35)
T10 sequence (P56817 other isoform, or with tags, fused parts or gaps S96A S96A): as the sequence (P56817 other isoform, or with tags, fused parts or gaps R296A R296A) above, with S75A, A275R counted along it
Described as above. On the procedure:
as §1, §2

Experiment [12] concerns the target T11, human BACE1 ECD (22-457) Q134A, His8 (human, UniProt P56817 22-457).
T11 construct: also called Q134A (73)
Described as above. On the procedure:
as §1, §2

Experiment [13] addresses T12, human BACE1 ECD (22-457) I171A, His8 (human, UniProt P56817 22-457).
T12 construct: also called I171A (110)
The experiment is described as above. As to the method: as §1, §2

Experiment [14] has as its target T13, human BACE1 ECD (22-457) I179A, His8 (human, UniProt P56817 22-457).
T13 construct: also called I179A (118)
The description is as above. As to the method:
as §1, §2

For experiment [15], the target named is T14, human BACE1 ECD (22-457) Q73A, His8 (human, UniProt P56817 22-457).
T14 construct: also called Q73A (12)
T14 sequence (P56817 other isoform, or with tags, fused parts or gaps Q73A Q73A): as the sequence (P56817 other isoform, or with tags, fused parts or gaps R296A R296A) above, with Q52A, A275R counted along it
The experiment is described as above. On the procedure: as §1, §2

Experiment [16] has as its target T15, human BACE1 ECD (22-457) T293A, His8 (human, UniProt P56817 22-457).
T15 construct: also called T293A (232)
The experiment is described as above. On the procedure:
as §1, §2

For experiment [17], the target named is T16, human BACE1 ECD (22-457) Y132A, His8 (human, UniProt P56817 22-457).
T16 construct: also called Y132A (71)
T16 sequence (P56817 other isoform, or with tags, fused parts or gaps Y132A Y132A): as the sequence (P56817 other isoform, or with tags, fused parts or gaps R296A R296A) above, with Y111A, A275R counted along it
Described as above. As to the method:
as §1, §2

Experiment [18] concerns the target T17, human BACE1 ECD (22-457) K168A, His8 (human, UniProt P56817 22-457).
T17 construct: also called K168A (107)
The description is as above. On the procedure: as §1, §2

Starred links: 1 amine or outer side, 2 acyl side, 3 side chain; linkers in the order of their positions; H or OH if unused. Positions of bridges follow the written chain, without caps; N, C: chain ends. NH(CH2)3(OCH2CH2)2O(CH2)3NH = C(CN[*:1])COCCOCCOCCCN[*:2]

T15 sequence (P56817 other isoform, or with tags, fused parts or gaps T293A T293A): as the sequence (P56817 other isoform, or with tags, fused parts or gaps R296A R296A) above, with T272A, A275R counted along it
T6 sequence (P56817 other isoform, or with tags, fused parts or gaps G74A G74A): as the sequence (P56817 other isoform, or with tags, fused parts or gaps R296A R296A) above, with G53A, A275R counted along it
T7 sequence (P56817 other isoform, or with tags, fused parts or gaps N294A N294A): as the sequence (P56817 other isoform, or with tags, fused parts or gaps R296A R296A) above, with N273A, A275R counted along it
T12 sequence (P56817 other isoform, or with tags, fused parts or gaps I171A I171A): as the sequence (P56817 other isoform, or with tags, fused parts or gaps R296A R296A) above, with I150A, A275R counted along it
T11 sequence (P56817 other isoform, or with tags, fused parts or gaps Q134A Q134A): as the sequence (P56817 other isoform, or with tags, fused parts or gaps R296A R296A) above, with Q113A, A275R counted along it
T8 sequence (P56817 other isoform, or with tags, fused parts or gaps D289A D289A): as the sequence (P56817 other isoform, or with tags, fused parts or gaps R296A R296A) above, with D268A, A275R counted along it
T17 sequence (P56817 other isoform, or with tags, fused parts or gaps K168A K168A): as the sequence (P56817 other isoform, or with tags, fused parts or gaps R296A R296A) above, with K147A, A275R counted along it
T13 sequence (P56817 other isoform, or with tags, fused parts or gaps I179A I179A): as the sequence (P56817 other isoform, or with tags, fused parts or gaps R296A R296A) above, with I158A, A275R counted along it
T1 sequence (P56817 other isoform, or with tags, fused parts or gaps): as the sequence (P56817 other isoform, or with tags, fused parts or gaps R296A R296A) above, with A275R counted along it
T4 sequence (P56817 other isoform, or with tags, fused parts or gaps L91A L91A): as the sequence (P56817 other isoform, or with tags, fused parts or gaps R296A R296A) above, with L70A, A275R counted along it
T5 sequence (P56817 other isoform, or with tags, fused parts or gaps F169A F169A): as the sequence (P56817 other isoform, or with tags, fused parts or gaps R296A R296A) above, with F148A, A275R counted along it

B1: biotinylated BACE020 (Ac-NEESMYCRLLGIGCG-(PEG)3-biotin) (peptide)
peptide: Ac-NEESMYCRLLGIGCG-{NH(CH2)3(OCH2CH2)2O(CH2)3NH-biotin}
modifications: disulfide 7-14
notes: also called C-terminal biotin tagged BACE020 peptide
Take B1: the “Fold Decrease in Binding EC50 (Mut)/EC50 (WT)” value (shortened to “Fold Decrease in Binding EC50”) in experiment [1] turned out to be 1 fold; in experiment [2] it was 70.9 fold; in experiment [3], 4.5 fold; in experiment [4], 1 fold; in [5], 1.9 fold; in [6], 488 fold. Besides, the “Fold Decrease in Binding EC50” value in experiment [7] worked out at 2.7 fold; in [8], 2.4 fold; in experiment [9], 2210 fold; in experiment [10], 6.5 fold; in experiment [11], 1 fold; in experiment [12], 1990 fold. Moreover, the “Fold Decrease in Binding EC50” value was 1020 fold in [13]; 2.6 fold in experiment [14]; 1.7 fold in experiment [15]; 349 fold in [16]; 72.2 fold in experiment [17]; 1 fold in experiment [18].
